Results: the DeepSol protein solubility set

Experiment: soluble on expression in E. coli; label from the status in PepcDB or PDB records

Q: Which “soluble on expression in E. coli” value does the source give for “MGSDKIHHHHHHMAIEHYWDQALERSTAAQLNGALVPLSTELTRIRARQGEPFELRKLKGHPPSHLLARGPKPNPFLPWDPSLEVSEIGMRHVLILNKYPVQKGHMLLITREWAPQHGWLSYDDWEALLSVDQDTKGLWFFNSSPTAGASQPHRHLQLLRRCDDDRSCPRQEWFQSLVNSSPRESCQLTQCCAATARAQNHDAQIHYQAYLTLCEKIGLGNPAENQHPRQPYNLLLTKEWMALILRSREGIAGFSINALGFAGYLLATETSDLDWLNHHGPEALLEGVVKTIQ” here?
A: Its value is “not soluble”.

Q: Which “soluble on expression in E. coli” value does the source give for “MAHHHHHHMAPMSSSGIRGLSLRSVRETVHCATTQTTSAPPPPANCQQHQLLNTTEDKCNAIFAEVELLSKWLQHAVESRAHVEREAYALLQQADVKIQHLEDTVRQKEMELLYMRGAMESLRTRVEFYECRERRIEGDDDDANFPLRREADFKGAAVRKVVIMGENNTNDSYCSNRMGRGNGVMSPADFTVDSTEQLNAGKCVDLGTTATTCNSNGVDNASVSSPAETGVGGRSRVGHSALSWVRYLLERCVSNSGKDGASEGAASMKKKGEGNDQLADALTMLTTLQCQYADPNGDLVMMNSLCTKFSNSIVAVAEELNTALQIPLKRASNTTDSLQISQAAKVVEHPESAAEALPSSNQEPIMQCRKSVVEENLQLLQSLMAVESSSREAWSTLQKY” here?
A: Its value is “not soluble”.

Q: Which “soluble on expression in E. coli” value does the source give for “MARKTKQQALETRQHILDVALRLFSQQGVSATSLAEIANAAGVTRGAIYWHFKNKSDLFSEIWELSESNIGELEIEYQAKFPDDPLSVLREILVHILEATVTEERRRLLMEIIFHKCEFVGEMVVVQQAQRSLCLESYDRIEQTLKHCINAKMLPENLLTRRAAILMRSFISGLMENWLFAPQSFDLKKEARAYVTILLEMYQLCPTLRASTVNGSP” here?
A: The value was “not soluble”.

Q: For “SMANHLVKPDSRNCKRARELEPQVSDSPQVSSLGKSESSLSEASGLFYKEEALEKDLSDMSKEINLMLSTYAKILSERAAVDASYIDEIDGLFKEANIIENFLVQKREFLKQRFTVITNTLHK”, which “soluble on expression in E. coli” value is on record?
A: The value was “soluble”.

Q: Which “soluble on expression in E. coli” value does the source give for “PHFRGPVRKSTSIDTGPTESPASLKRVASPAAKPAIPGEEFIAMYTYESSEQGDLTFQQGDVIVVTKKDGDWWTGTGGDKSGVFPSNYVRLKDSEGSGTAGKTGSLGKKPEIAQVIASYAATGPEQLTLAPGQLILIRKKNPGGWWEGELQARGKKRQIGWFPANYVKLLSPGTSKITPTELPKTAVQPAVCQVIGMYDYTAQNDDELAFSKGQIINVLNKEDPDWWKGEVSGQVGLFPSNYVKLTTDMDPSQQWCSDLHLLDMLTPTERKRQGYIHELIVTEENYVNDLQLVTEIFQKPLTESELLTEKEVAMIFVNWKELIMCNIKLLKALRVRKKMSGEKMPVKMIGDILSAQLPHMQPYIRFCSCQLNGAALIQQKTDEAPDFKEFVKRLAMDPRCKGMPLSSFILKPMQRVTRYPLIIKNILENTPENHPDHSHLKHALEKAEELCSQVNEGVREKENSDRLEWIQAHVQCEGLSEQLVFNSVTNCLGPRKFLHSGKLYKAKSNKELYGFLFNDFLLLTQITKPLGSSGTDKVFSPKSNLQYKMYKTPIFLNEVLVKLPTDPSGDEPIFHISHIDRVYTLRAESINERTAWVQKIKAASELYIETEKKKREKAYLVRSQRATGIGRLMVNVVEGIELKPCRSHGKSNPYCEVTMGSQCHITKTIQDTLNPKWNSNCQFFIRDLEQEVLCITVFERDQLSADDFLGRTEIRVADIKKDQGSKGPVTKCLLLHEVPTGEIVVRLDLQLFDEP” here?
A: The value was “soluble”.

Q: With “MGSDKIHHHHHHMKKVLGLVVSNRKLGNSEILVKEIINNIPEECNRELIRLTDLEIKPCKACYRCLQPNNACPVRDDFNFVIEKIREADALIIGVPVYFLGPHGYYKMLTDRLLGSQNYSQDTQGKPCIIVMPYGSEGWEGYSKIACMVMPKLLRMKLVDCWQIHASLPGESLLNPENISYARALGRELFNGREYHAESKECPICGSDLFRLINENQVECPICGSRGILKNNFSPDFSDSDYRRFSDHEMDEHFKGWLLEMKDRFSAEKNHLKELQKGYRNQNWWIKPCRLDEC” as the sequence, how does the “soluble on expression in E. coli” value read?
A: The value was “not soluble”.

Q: Which “soluble on expression in E. coli” value does the source give for “MAHHHHHHMGGHGGLNILPQKKWNVYRKDAQYKVHYDEHKIIKEEKDKEIKRKKDEFESTISTLKKNMTKNEDSDNNYNNFYDENGEKKTTTNYCNDHINLFIDEEKELTAKQKKHEEFLIKKGHYIYYDKNFNTQHNSIYDKNKNAQIISDFNKMKLCERDWFLNKKNKNEKTKDNGANFFHIQKDNISEEHNKTENINSDLSLYCNTNNYITHDKKKEKKQMHYHIKKIIKYKQEKDKEKKRKRQGKEKKKPK” here?
A: Its value is “not soluble”.

Q: For “VAPLGLSVPSDVELPPTAKMHAIIERTASFVCRQGAQFEIMLKAKQARNSQFDFLRFDHYLNPYYKFIQKAMKEGRYTVLAENKSDEKKKSGVS”, which “soluble on expression in E. coli” value is on record?
A: The value was “soluble”.

Q: Which “soluble on expression in E. coli” value does the source give for “MATPDVSVHMEEVVVVTTPDTAVDGSGVEGVKTVLVTTNLAPHGGDLTEDNMETENAAAAAAAAFTASSQLKEAVLVKMAEEGENLEAEIVYPITCGDSRANLIWRKFVCPGINVKCVQYDEHVISPKEFVHLAGKSTLKDWKRAIRMNGIMLRKIMDSGELDFYQHDKVCSNTCRSTKIDLSGARVSLSSPTSAEYIPLTPAAADVNGSPATITIETCEDPGDWTAAIGDDTFTFWRGLKDAGLLDEVIQEFHQELVETMRGLQQRVQDPPLQLRDAVLLNNIVQNFGMLDLVKKVLASHKCQMDRSREQYARDLAALEQQCDEHRRRAKELKHKSQHLSNVLMTLTPVSLPPPVKRPRLARATSGPAAMASQVLTQSAQLALGPGVPVPQLTSVPLGKVVSTLPSTVLGKGSLQAPPASSPASPLLGGYTVLASSGSTYPSTVEIHPDASSLTVLSTAAVQDGSTVFKVVSPLQLLTLPGLGPTLQNVAQASPGSSTIVTVPAGAAPGPEEHTATIEVAAMAEDHERK” here?
A: The value was “not soluble”.

Q: For “MSLKILLLVAISCLFVACSNDKEKQQNDVNLSTEASINQSDDMNFKLNLIDGGSISVKKENAVLNFNDEDKVTLFVFFTTWCTPCIAEIPHLNKLQEKYNNDFNIVGVLLEDKSNDEIQKFIEQHKISYKVANGENNYLLAKALGGVNGIPTMFLYNKHSKLINQYLGLIPEEMLEIDIQKAILEGGSHHHHHH”, which “soluble on expression in E. coli” value is on record?
A: The value was “soluble”.

Q: For “MSDPHQSQQLVTAGTALSEASAAAVLVHGRGATARSIVQMGAEFQQDGLALLAPQAARNTWYPNSFLSPVEQNEPGRSSGLQAIEDAVTKAAEAGIPTDHVLILGFSQGACLASEFVARNPQRYGGLVALSGGLIGESIDESEYEGDIEETPVFLGCSNVDPHIPEERVHVTASVFERLNGDVEERIYEGMGHGVNEDELAYVSSLTAGLVN”, which “soluble on expression in E. coli” value is on record?
A: The value was “not soluble”.

Q: For “MGGLYVSNFYGIFYSSNSESSTTLVDFCKYNAEIVEQTIFLEFVEFSNESIIFLKNLYSKMVNNSNFNIKKKFFHRKNSVTVYSNFLNFSKNLVKKFGV”, which “soluble on expression in E. coli” value is on record?
A: The value was “not soluble”.

Q: With “MQDIRDLTAVLRSKTPIVVIETYEEYRVVDMLKRIANVLYQPLFTWSITQGLTRVDKPMPAQKFNTEPGDILGQIKATTQQGIYVLCDFHPFVVEAPKNVRLLKEIALEYDALQHTLVLVSHAFEIPPEIKRYCAYFQLTLPSTSQLENLIYLEVDKVRTQGIPLNVDDKAVVKLAENLRGVTLDDARRLIHKAIVDDGAITHSDVDLINKAKFQLLDLNGILQFEYDTSDFSQIAGLHNLKKWLKQRAPAAHSPQGVSAAAQIDTPKGVLLLGVQGSGKSLAAKAVAGVWQRPLLRLDMGALYNKYIGETEKNLRNALELADMMSPCILWIDEIEKGLSGSNSDQGISTRILGTLLTWMAERKSEVFVVATANDIQALPPELMRKGRMDEIFFVDLPDETIRKAIFLIHCQRRGIDVSRLDLAQLSRHSQGFSGAEIEQAVIAAMYSARSLGRTLDQDLLLEELTKTRPLSIVMGDKINALRQWAAGRTVNAHELEHHHHHH” as the sequence, how does the “soluble on expression in E. coli” value read?
A: Its value is “soluble”.

Q: For “MATQGAWLRMTSSAKSMTKSTVTSKELGFLTSQLSGLRISYTPSDVINRISLPSFPGIQPIVARRICPFTGKKANRANKVSFSNHKTKKLQFVNLQYKRVWWEAGKRFVKLRLSTKALKTIEKNGLDAVAKKAGIDLRKKLEHHHHHH”, which “soluble on expression in E. coli” value is on record?
A: The value was “not soluble”.

Q: For “MFVFMLLLLLPFTISKAKDFPANPIEKAGYKLDFSDEFNGPTLDREKWTDYYLPHWCKDPESAKANYRFENGSLVEYITEDQKPWCPEHDGTVRSSAIMSFDKSWIHNFSGTTDNHERNEWRGYTTKYGYFEIRAKLSNTGGGGHQAWWMVGMQDDTNDWFNSKQTGEIDILETFFSKKDTWRIAAYGWNDPNFQTSWTISEDKVPSGDPTSEYHIYAMEWTPTALKFYYDNELFKVIYGSPDYEMGTILNIYTDAGSGAHNDVWPKEWAIDYMRVWKPVDGYKESESLNNYLIRNRQTGKFLYIEENNDKVSYGDITLKNEKNAKWSKEYRDGYTLLKNNETGEYLNIENQTGYIEHGKVPKTWWSAQWSEVPVDGYTRFVNRWKPNMSIHTESYEGVLQYGNVPNTYWTSQWQLIPVE”, which “soluble on expression in E. coli” value is on record?
A: Its value is “soluble”.

Q: For “GSMTHYDVVVLGAGPGGYVAAIRAAQLGLSTAIVEPKYWGGVCLNVGCIPSKALLRNAELVHIFTKDAKAFGISGEVTFDYGIAYDRSRKVAEGRVAGVHFLMKKNKITEIHGYGTFADANTLLVDLNDGGTESVTFDNAIIATGSSTRLVPGTSLSANVVTYEEQILSRELPKSIIIAGAGAIGMEFGYVLKNYGVDVTIVEFLPRALPNEDADVSKEIEKQFKKLGVTILTATKVESIADGGSQVTVTVTKDGVAQELKAEKVLQAIGFAPNVEGYGLDKAGVALTDRKAIGVDDYMRTNVGHIYAIGDVNGLLQLAHVAEAQGVVAAETIAGAETLTLGDHRMLPRATFCQPNVASFGLTEQQARNEGYDVVVAKFPFTANAKAHGVGDPSGFVKLVADAKHGELLGGHLVGHDVAELLPELTLAQRWDLTASELARNVHTHPTMSEALQECFHGLVGHMINF”, which “soluble on expression in E. coli” value is on record?
A: The value was “soluble”.

Q: For “MGSDKIHHHHHHQEAKGSADETKVEVQYLDPRDPFEGFNRAMWDFNYLYLDKYILKPVAHGYNDYLPLPVKDGVHNFTTNFDEPSSLVNNILQGKWSWAANAGGRFTVNTSLGILGIFDVAQMMGMERKQDDFSEVLGFYGVPNGPYFMAPFFGPFVTREIASDWVDGLYFPLSELTMWQSALKWGMKSLHNRAEAIDRERLLDNALDPYAFVKDAYFQHVDYKVYDGNVPTTQEDDELLDEFMEELE”, which “soluble on expression in E. coli” value is on record?
A: Its value is “not soluble”.

Q: Which “soluble on expression in E. coli” value does the source give for “MHHHHHHSSGVDLGTENLYFQSMGAGRRESEPRPTSARQLDGIRNIVLSNPKKRNTLSLAMLKSLQSDILHDADSNDLKVIIISAEGPVFSSGHDLKELTEEQGRDYHAEVFQTCSKVMMHIRNHPVPVIAMVNGLATAAGCQLVASCDIAVASDKSSFATPGVNVGLFCSTPGVALARAVPRKVALEMLFTGEPISAQEALLHGLLSKVVPEAELQEETMRIARKIASLSRPVVSLGKATFYKQLPQDLGTAYYLTSQAMVDNLALRDGQEGITAFLQKRKPVWSH” here?
A: The value was “soluble”.

Q: With “MAHHHHHHMPRNRSSGDDGGGGGKRGGRYAAVVEKGENAWKREWSSFMSGVNLKRLRDGTSGVTLKASADIERQLVAREAAPSSSSVAGEHDNGNDVEVNADGIPLGAIASHASFSYLFSSPAERRAERDARERAEAERRQAHKRELMAKKDPLSVLSKHQRAMHNAEQRGLQLDGMTRKERRSFLHLTVTEAQRKAEEQSREFKLHDLMDEKLAWYQQGPHPIDLIAEKLVRRKAEKKGKQLGLKYNYLAPHPSWLAKRAQRRRESLLVGLGKRLIFLERVTGEDKDDATTVPSSEVMVTDPLHHLTVPLSEMGRLLGQHGSASLSAAAAAAADADALVTAAAGSSSGDDIEDVKGADEEGAQHLGGEVDRGHRGDVTAARKKAVSASSAASSAGGCSSASPGKRASGEAGDDGVGNDAAQMRLPDVVVLQDPSRIATSLVRTVARDRTTALAIQQINRTTNFLSSGLVKGPSLRPEDALPGNGLSPRGLGAAPAAAALTPSPKSSMVAASMQDSAANSTKGAATTSRGASAAGRGRRRVRVADGEEEGGERRRHRRGADVSAGESQTKTSKPTASPSPRPRGARPPPTHTHELRDITSRSGPSKSQGGQVSSSKTKRQRANSRYD” as the sequence, how does the “soluble on expression in E. coli” value read?
A: Its value is “not soluble”.
